# In patent US20130022592A1, “Continuous subcutaneous insulin infusion methods with a hyaluronan-degrading enzyme” (priority 2011, published 2013):
# Entries after “also recorded” stand apart in the source; their conditions may differ. Like-named read-outs stand apart in the source and are kept apart here.
# B1: rHuPH20: soluble recombinant human PH20 hyaluronidase expressed in CHO cells from nucleic acid encoding amino acids 36-482 of SEQ ID NO:1; mixture of SEQ ID NOS:4-9 (protein, listed as Homo sapiens)
# chain: LNFRAPPVIPNVPFLWAWNAPSEFCLGKFDEPLDMSLFSFIGSPRINATGQGVTIFYVDRLGYYPYIDSITGVTVNGGIPQKISLQDHLDKAKKDITFYMPVDNLGMAVIDWEEWRPTWARNWKPKDVYKNRSIELVQQQNVQLSLTEATEKAKQEFEKAGKDFLVETIKLGKLLRPNHLWGYYLFPDCYNHHYKKPGYNGSCFNVEIKRNDDLSWLWNESTALYPSIYLNTQQSPVAATLYVRNRVREAIRVSKIPDAKSPLPVFAYTRIVFTDQVLKFLSQDELVYTFGETVALGASGIVIWGTLSIMRSMKSCLLLDNYMETILNPYIINVTLAAKMCSQVLCQEQGVCIRKNWNSSDYLHLNPDNFAIQLEKGGKFTVRGKPTLEDLEQFSEKFYCSCYSTLSCKEKADVKDTDAVDVCIADGVCIDAFLKPPMETEEPQIFY
# modifications: mixture of SEQ ID NOS:4-9; precursor human PH20
# Key:
# [1] = cited from earlier work
# [2] = Adverse events (Example 4); assay type: in vivo, human; conditions: eleven evaluable subjects
# Text: 4. […] All were mild and resolved without sequaelae. The most common event was headache (n=4).
# [3] = Routine diabetes management, continuous glucose monitoring (Example 4); assay type: in vivo, human; conditions: three patients; rHuPH20 preadministration
# Protocol: The results are depicted below for the first three subjects that completed the study. In addition, continuous glucose monitoring of the three subjects to compare glucose control in routine outpatient diabetes care also was assessed. […] After the clamp experiment the infusion set was changed and the patients discharged. […] To maintain the double-blind study design, a trained professional not otherwise involved in the study administered either rHuPH20 or a sham injection while the patient looked away. After completion of the phase, patients returned to the CRU within 21 days to repeat these steps with the alternate treatment.
# [4] = Blood glucose response to standardized evening meal (Example 3); assay type: in vivo, human; conditions: with vs without rHuPH20
# Text: (§1) The study was continued to include 15 subjects who completed the study protocol, and was further continued to include 17 subjects who completed the study protocol. The subjects were confined to an inpatient setting for three days of study.
# [5] = in vivo
# Protocol: as §1
# Adverse events were assessed during the course or infusion treatment.
# [6] = Glucodynamics in euglycemic clamps, rapid acting insulin analog CSII with rHuPH20 or sham injection (Example 4); assay type: in vivo, human
# Text: Patients with type 1 diabetes participated in a randomized, double-blind, 2-way crossover design clinical study comparing the administration of a single hyaluronidase injection at each infusion set change to sham injections in a CSII therapy. The study compared euglycemic clamp endpoints at the beginning and end of 3 days of continuous infusion and glycemic response to a series of four breakfast solid meal challenges. […] In addition, continuous glucose monitoring of the three subjects to compare glucose control in routine outpatient diabetes care also was assessed.
# Subjects were released from the CRU the same day.
# Subjects returned 3 days later for a second euglycemic clamp after 3 days of continuous infusion. After the clamp experiment the infusion set was changed and the patients discharged. […] Subjects returned to the CRU approximately every 3 days to receive a new infusion set and receive a patient specific standardized breakfast meal and insulin bolus.
# (§2) The insulin action profile as a function of time, or glucodynamics, was measured by determining the rate of glucose infusion necessary to maintain euglycemia following the bolus insulin infusion.
# [7] = Glucodynamics in euglycemic clamps, NovoLog CSII with or without rHuPH20 pretreatment (Example 3); assay type: in vivo, human; conditions: for faster onset of action with rHuPH20 pretreatment / shorter duration of action with rHuPH20 pretreatment: vs without rHuPH20
# Protocol: The subjects were confined to an inpatient setting for three days of study.
# Approximately 2 hours after insertion of the new insulin infusion catheter set, a euglycemic glucose clamp experiment was conducted (1′ clamp). […] Blood glucose was clamped at 90% of the fasting level to suppress endogenous insulin release during the study. A 0.15 U/kg bolus was administered through the insulin pump; and the usual individual basal rate was continued during clamps and PK results are thus baseline-subtracted.
# During the euglycemic glucose clamp experiment, the subjects were followed for six (6) hours during which blood was drawn and free insulin levels and glucose infusion rates required to maintain euglycemia were determined.
# In each experiment, the subjects were followed for six (6) hours during which blood was drawn and free insulin levels and glucose infusion rates required to maintain euglycemia were determined as described above.
# as §2
molecule,measurement,setting,value
Lente,Peak,[1]; in vivo,6 to 12 h
Regular Insulin,Duration,"[1]; Table 2, Types of Insulins",5 to 8 h
same,onset of action,[1]; administered subcutaneously alone,30 min
detemir: long-lasting insulin (an analog),Duration,"[1]; Table 2, Types of Insulins",28 h
same,Onset,"[1]; Table 2, Types of Insulins",4 to 6 h
same,Peak,"[1]; Table 2, Types of Insulins",18 to 28 h
insulin glargine,Duration,"[1]; Table 2, Types of Insulins",28 h
same,Onset,"[1]; Table 2, Types of Insulins",4 to 6 h
same,Peak,"[1]; Table 2, Types of Insulins",18 to 28 h
insulin lispro,Duration,"[1]; Table 2, Types of Insulins",3 to 4 h
same,Onset,"[1]; Table 2, Types of Insulins",0.083 to 0.25 h
same,Peak,"[1]; Table 2, Types of Insulins",0.75 to 1.5 h
B1,Potential local site reactions (in words),[2],an abdominal bruise; also recorded: pain at the infusion site; also recorded: a stinging sensation during infusion
same,outpatient glucose control (in words),[3],tighter glucose control
same,reduction in 2 hour glycemic excursion,[4]; 15 completers,21 mg/dL
same,reduction in 2 hour glycemic excursion,[4]; 17 completers,19 mg/dL
same,subjects with adverse events related to CSII infusion sites (in words),[5],two subjects
same,differences in onset or duration of action over three days of continuous infusion (in words),"[6]; Example 4, rHuPH20 pretreatment",no significant differences
same,faster onset of action with rHuPH20 pretreatment,[6]; vs without rHuPH20,21 min
same,shorter duration of action with rHuPH20 pretreatment,[6]; vs without rHuPH20,30 min
same,faster onset of action with rHuPH20 pretreatment,[7]; 15 completers,9 min
same,shorter duration of action with rHuPH20 pretreatment,[7]; 15 completers,27 min
same,faster onset of action with rHuPH20 pretreatment,[7]; 17 completers,9 min
same,shorter duration of action with rHuPH20 pretreatment,[7]; 17 completers,27 min
same,"differences in early insulin exposure, onset or duration of action over three days of continuous infusion (in words)","[7]; Example 3, rHuPH20 pretreatment",no significant differences
